Reference: the nanobody polyreactivity screen of Harvey et al. (2022)

Assay: yeast display, Sf9 membrane polyspecificity reagent, FACS + sequencing; frameworks hold sequencing errors
How it was run: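 A nanobody's polyreactivity label depends on the gate it was sorted from. Yeast display cells were stained with 10% biotinylated, detergent-solubilized Sf9 membrane reagent for 1 hour at 4 °C, enriched on streptavidin microbeads and sorted by FACS. The low and high (top ~1%) gates were set on anti-HA fluorescence for expression and streptavidin fluorescence for reagent binding.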

## QVQLVESGGGLVQAGGSLRLSCAASGSILIVYAMGWYRQAPGKERELVAAITRGGRTNYADSVKGRFTISRDYAKNTVYLQMNSLKPEDPAVYYCAAYTESYGGSDYDYWGQGTQVTVSS
  polyreactivity (PSR sort gate): high polyreactivity

## QVQLVESGGGLVQAGGSLRLSCAASGSILKNNAMGWYRQAPGKERELVAAITYSSGSTYYADSVKGRFTISRDNAKNTVYLQMNILKPEDTAVYYCATDPEGSTGGGYEYWGQGTQVTVSS
  polyreactivity (PSR sort gate): low polyreactivity

## QVQLVESGGGLVQAGGSLRLSCAASGSILKSNAMGGSRQAPGKARELVAANSSSGDSTYYADSVKGRFTISRDNAKNTVYLQMHSLKPADTAVYSCAARLRGRTRTGYYWGQGTQVTVSS
  polyreactivity (PSR sort gate): high polyreactivity

## QVQLVESGGGLVQAGGSLRLSCAASGSILLEYAMGWYRQAPGKERELVAAISRGGTTNYADSVKGRFTISRDNAKNTVYLQMNSLKPEDTAVYYCAAGKIGRRGHQNRLDLDYWGQGTQVTVSS
  polyreactivity (PSR sort gate): low polyreactivity

## QVQLVESGGGLVQAGGSLRLSCAASGSILNLNAMGWYRQAPGKERELVAAIRGGGRTNYADSVKGRFTISRDNAKNTVYLQMNSLKPEDTAVYYCAARITRPLTGYDYWGQGTQVTVSS
  polyreactivity (PSR sort gate): high polyreactivity

## QVQLVESGGGLVQAGGSLRLSCAASGSILNSYAMGWYRQAPVKERELVARITGDGGITYYADSVKGRFTISRDNAKNTVYLQMNSLKPEDTAVYYCNAEVVALRRDTIYDYWGQGTQVTVSS
  polyreactivity (PSR sort gate): low polyreactivity

## QVQLVESGGGLVQAGGSLRLSCAASGSILPGNTMGWYRQAPGKERELVASISNTGGNTYYADSVKGRFTISRDNAKNTVYLQMNSLKPEDTAVYYCAARFSLWFPTVYWEGILDYWGQGTQVTVSS
  polyreactivity (PSR sort gate): low polyreactivity

## QVQLVESGGGLVQAGGSLRLSCAASGSILPLYAMGGYRQAPGKERELVATISNAGSTTYADSVKGRFTISRDNAKNTVYLQMNSLKPEVTAVYYCNAESEWGWVYVGYDYWGQGTQVTVSS
  polyreactivity (PSR sort gate): low polyreactivity

## QVQLVESGGGLVQAGGSLRLSCAASGSILPVYAMGWYRQAPGKERELVAAISVSGGSTRYADSVKGRFTISRDNAKNTVYLQMNSLKPEDTAVYYCAARYRYSYGYWGQGTQVTVSS
  polyreactivity (PSR sort gate): high polyreactivity

## QVQLVESGGGLVQAGGSLRLSCAASGSILPVYVMGWYRQAPGKERELVAAISSGGSTTYADSVKGRFTISRDNAKNTVYLQMNSLKPEDTAVYYCNADVVRGYSYIYRWPFRYAYDYWGQGTQVTVSS
  polyreactivity (PSR sort gate): low polyreactivity

## QVQLVESGGGLVQAGGSLRLSCAASGSILQPNAMGWYRQAPGKERELVASITFSAGRTYYADSVKVRFTISRDNAKNTVYLQMNCLKPEDTAVYYCKAASDYRSSDYDYWGQGTQVTVSS
  polyreactivity (PSR sort gate): low polyreactivity

## QVQLVESGGGLVQAGGSLRLSCAASGSILREYTMGWSRQAPGKEMELVAAITYSGDSTYYADSVKGRFTISRDNAKNTVYLHMNSLKPEDTAVYYCNKKYRSRWQGPFDYWGQGTLVTVSS
  polyreactivity (PSR sort gate): high polyreactivity

## QVQLVESGGGLVQAGGSLRLSCAASGSILRPNAMGWYRQAPGKERELVAAITTSGGSTYYADSVKGRFTISRDNAKNTVYLQMNSLKPEDTAVYYCAARRQRDRYGYWGQGTQVTVSS
  polyreactivity (PSR sort gate): high polyreactivity

## QVQLVESGGGLVQAGGSLRLSCAASGSILRRYAMGWYRQAPGKEREFVAAISYSGSRTYYADSVKGRFTISRDNAKNTVYLQMNSLKPEDTAVYFCAADSYGSRYEYWGQGTQVTVSS
  polyreactivity (PSR sort gate): high polyreactivity

## QVQLVESGGGLVQAGGSLRLSCAASGSILRVYAMGWYRQAPGKERELVAAISWGDGRTYYADSVKGRFTISRDNAKNTDYLQMNSLKPEDTAVYYCNADVFIQYWGVLIREYDYWGQGTQVTVSS
  polyreactivity (PSR sort gate): high polyreactivity

## QVQLVESGGGLVQAGGSLRLSCAASGSILRYYAMGWYRQAPGKEREFVAAISWSGTSTYYADSVKGRFTISRDNAKNTVYLQMNSLKPEDTAVYYCAARTYYVPYYYWGQGTQVTVSS
  polyreactivity (PSR sort gate): high polyreactivity

## QVQLVESGGGLVQAGGSLRLSCAASGSILSGYAMGWYRQAPGKERELVAAITSGGDTNYADSVKGRFTISRDNAKNTVYLQMNSLKPEDTAVYYCNRGGDFRIAYYDPMDYWGQGTQVTVSS
  polyreactivity (PSR sort gate): low polyreactivity

## QVQLVESGGGLVQAGGSLRLSCAASGSILSSYAMGWYRQAPGKERELVAAISWRGGPTYYADSVKGRFTISRDNAKNTVYLQMNSLKPEDTAVYHCAAEFYDHPWLYDYWGQGTQVTVSS
  polyreactivity (PSR sort gate): low polyreactivity

## QVQLVESGGGLVQAGGSLRLSCAASGSILSWYAMGWYRQAPGKERELVAAITGAGSTNYADSVKGRFTISRDNAKNTVYLQMNSLKPEDTAVYYCAADGSPWSWYSDGYWGQGTQVTVSS
  polyreactivity (PSR sort gate): low polyreactivity

## QVQLVESGGGLVQAGGSLRLSCAASGSILSWYAMGWYRQAPGKERELVAAITGSGGTTYADSVKWRFTISRDNAKNTVYLQMNSLKPEDTAVYYCAADYLGIYDYWGQGTQVTVSS
  polyreactivity (PSR sort gate): high polyreactivity

## QVQLVESGGGLVQAGGSLRLSCAASGSILSYNTMGWYRQAPGKEREFVAGITYSGSRTYYADSVKGRFTISRDNAKNPVYLQMNSLKPEDTAVYYCAAQYWQGDYDYWGQGTQVTVSS
  polyreactivity (PSR sort gate): high polyreactivity

## QVQLVESGGGLVQAGGSLRLSCAASGSILSYYAMGWYRQAPGKERELVAAITGGGSTYYADSVKGRFTISRDNAKNTVYLQMNCLKPEVTAVYYCAALWWTYGIGYGYWGQGTLVTVSS
  polyreactivity (PSR sort gate): high polyreactivity

## QVQLVESGGGLVQAGGSLRLSCAASGSILTDNAMRWYRQAPGKERELVAAITSGGSTYYADSVKGRFTISRDNAKNTVYLQMNSLKPEDTAVYYCNADPYTYSYGMYYWGQGTQVTVSS
  polyreactivity (PSR sort gate): low polyreactivity

## QVQLVESGGGLVQAGGSLRLSCAASGSILTINAMGWYRQAPGKERELVAAITGNGGSTDYADSVKGRFTISRDTAKNTVYLQMNSLKPVDTAVYYCAARLYYFGRSGVKYRDGYWGQGTQVTVSS
  polyreactivity (PSR sort gate): high polyreactivity

## QVQLVESGGGLVQAGGSLRLSCAASGSILTINAMGWYRQAPGKERELVARITISSGSTYYADSVKGRFTISRDNAKNTVYLQMNSLKPEDTAVYYCAVDTSYSDRYDYWGQGTQVTVSS
  polyreactivity (PSR sort gate): low polyreactivity

## QVQLVESGGGLVQAGGSLRLSCAASGSILTRYAMGWYRQAPGKERELVAANTYSGDSTYYADSVKGRFTISRDNAKNTVYLQMNSLKPEDTAVYYCAARKYYARYYWGQGTQVTVSS
  polyreactivity (PSR sort gate): high polyreactivity

## QVQLVESGGGLVQAGGSLRLSCAASGSILVQNAMGWYRQAPGKERELVAVINSGDSTNYADSVKGRFTISRDNAKNTVFLQMNSLKPEDTAVYYCAVDDVSYYYLRAYNYELSWYGSGLDYWGQGTQVTVSS
  polyreactivity (PSR sort gate): low polyreactivity

## QVQLVESGGGLVQAGGSLRLSCAASGSILVSNDMGWYRQAPGKERELVAAISWSGGSTYYADSVKGRFTISRDNAKNTVYLQMNSLKPEDTAVYYCATGVALRYGYWGQGTQVTVSS
  polyreactivity (PSR sort gate): low polyreactivity

## QVQLVESGGGLVQAGGSLRLSCAASGSILVTYAMGWYRQAPGKERELVAAISRGGRTYYADSVKGRFTISRDNAKNTVYLQMNSLKPEDTAVYYCNADRVTFSWPVNYYWVDYWGQGTQVTVSS
  polyreactivity (PSR sort gate): high polyreactivity

## QVQLVESGGGLVQAGGSLRLSCAASGSILWENAKGWYRQAPGKERELVATISVSGGGTYYADSVKGRFTISRDNAKNTVYLQMNSLKPEDTAVYYCNARYGNESQGWEDYWGQGTQVTVSS
  polyreactivity (PSR sort gate): low polyreactivity

## QVQLVESGGGLVQAGGSLRLSCAASGSILWLYAMGWYRQAPGKERELVAAISGSGRTNYADSVKGRFTISRDNAKNTVYLQMNSQKPEDTAVYYCARVHGTSESKYYYWGQGTQVTVSL
  polyreactivity (PSR sort gate): low polyreactivity

## QVQLVESGGGLVQAGGSLRLSCAASGSILWLYVMGWYRQAPGKERELVATITSSGGSTYYADSVKGRFTISRDNAKNTVYLQMNSLKPEDTAVYYCAAQTYYSYDYWGQGTQVTVSS
  polyreactivity (PSR sort gate): low polyreactivity
